Test results reported in the supplement of paper PMC10065799, “High-throughput profiling of sequence recognition by tyrosine kinases and SH2 domains using bacterial peptide display” (eLife, 2023).

Experiments:
AncSZ = assay: phosphorylation enrichment, bacterial display (enrichment ratio); higher = better substrate or ligand; peptides without Tyr show the background
EPHB1 = EPHB1 (UniProt P54762); assay: as above
EPHB2 = EPHB2 (UniProt P29323); assay: as above
FGFR1 = FGFR1 (UniProt P11362); assay: as above
FGFR3 = FGFR3 (UniProt P22607); assay: as above
Fer (mouse) = assay: as above
Fes = Fes (UniProt P07332); assay: as above
Fyn = Fyn (UniProt P06241); assay: as above
Hck = Hck (UniProt P08631); assay: as above
Jak2 = Jak2 (UniProt O60674); assay: as above
MERTK = MERTK (UniProt Q12866); assay: as above
c-Abl (mouse) = assay: as above
c-Src = assay: as above
Grb2 SH2 = Grb2 SH2 (UniProt P62993); assay: SH2 binding enrichment of the phosphorylated peptide, bacterial display (enrichment ratio); higher = better substrate or ligand; peptides without Tyr show the background
SHP2-C SH2 = assay: as above
c-Src SH2 = assay: as above
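Throughout, for SH2 binding enrichment of the phosphorylated peptide, bacterial display: peptide library displayed on the E. coli surface as eCPX fusions, selected cells deep-sequenced, score is each peptide's frequency after selection divided by its frequency in the input.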
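Throughout, for phosphorylation enrichment, bacterial display: 11-residue human phosphosite peptides and single-mutation variants displayed on the E. coli surface, counted by deep sequencing, each peptide's frequency after selection divided by its frequency in the unselected input library; frequency after pTyr selection over input frequency; kinase dosed for 20-30% of maximal phosphorylation in three min.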

Chain of Fes (P07332 whole entry, looked up): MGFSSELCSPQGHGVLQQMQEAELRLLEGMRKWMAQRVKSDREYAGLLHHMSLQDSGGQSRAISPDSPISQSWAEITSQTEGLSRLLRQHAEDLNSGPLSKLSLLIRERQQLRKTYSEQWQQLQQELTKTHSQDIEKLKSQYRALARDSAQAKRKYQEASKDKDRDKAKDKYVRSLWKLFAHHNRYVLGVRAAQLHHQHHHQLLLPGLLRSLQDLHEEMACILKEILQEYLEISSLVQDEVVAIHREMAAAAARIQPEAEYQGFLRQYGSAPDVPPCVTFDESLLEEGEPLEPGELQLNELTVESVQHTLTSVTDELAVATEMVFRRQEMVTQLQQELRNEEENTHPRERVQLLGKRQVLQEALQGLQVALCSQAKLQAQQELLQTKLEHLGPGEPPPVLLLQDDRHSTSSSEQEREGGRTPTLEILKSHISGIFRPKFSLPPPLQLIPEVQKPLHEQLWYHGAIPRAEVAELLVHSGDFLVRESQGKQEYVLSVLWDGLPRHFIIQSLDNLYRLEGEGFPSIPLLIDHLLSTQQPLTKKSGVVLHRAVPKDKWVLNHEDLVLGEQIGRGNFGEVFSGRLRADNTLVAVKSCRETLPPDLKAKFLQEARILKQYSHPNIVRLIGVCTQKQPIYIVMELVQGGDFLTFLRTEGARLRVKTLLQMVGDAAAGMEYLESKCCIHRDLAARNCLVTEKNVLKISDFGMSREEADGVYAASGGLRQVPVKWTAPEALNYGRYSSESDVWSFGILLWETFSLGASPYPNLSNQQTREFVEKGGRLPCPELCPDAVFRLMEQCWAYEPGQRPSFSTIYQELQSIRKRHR
Chain of Hck (P08631 whole entry, looked up): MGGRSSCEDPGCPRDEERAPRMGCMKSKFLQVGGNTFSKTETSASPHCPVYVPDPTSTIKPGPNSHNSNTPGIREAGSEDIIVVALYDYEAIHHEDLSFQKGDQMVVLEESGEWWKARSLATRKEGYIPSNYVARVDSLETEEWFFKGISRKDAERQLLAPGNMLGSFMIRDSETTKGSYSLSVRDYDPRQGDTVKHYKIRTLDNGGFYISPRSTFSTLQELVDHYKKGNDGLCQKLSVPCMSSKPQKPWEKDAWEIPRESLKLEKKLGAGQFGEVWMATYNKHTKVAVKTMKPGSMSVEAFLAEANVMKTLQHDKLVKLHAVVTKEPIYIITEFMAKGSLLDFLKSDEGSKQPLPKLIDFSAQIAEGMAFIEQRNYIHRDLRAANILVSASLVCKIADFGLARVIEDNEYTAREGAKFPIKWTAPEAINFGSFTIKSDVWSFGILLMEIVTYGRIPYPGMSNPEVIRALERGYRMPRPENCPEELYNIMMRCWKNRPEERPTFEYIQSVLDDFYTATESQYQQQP
Chain of FGFR1 (P11362 whole entry, looked up): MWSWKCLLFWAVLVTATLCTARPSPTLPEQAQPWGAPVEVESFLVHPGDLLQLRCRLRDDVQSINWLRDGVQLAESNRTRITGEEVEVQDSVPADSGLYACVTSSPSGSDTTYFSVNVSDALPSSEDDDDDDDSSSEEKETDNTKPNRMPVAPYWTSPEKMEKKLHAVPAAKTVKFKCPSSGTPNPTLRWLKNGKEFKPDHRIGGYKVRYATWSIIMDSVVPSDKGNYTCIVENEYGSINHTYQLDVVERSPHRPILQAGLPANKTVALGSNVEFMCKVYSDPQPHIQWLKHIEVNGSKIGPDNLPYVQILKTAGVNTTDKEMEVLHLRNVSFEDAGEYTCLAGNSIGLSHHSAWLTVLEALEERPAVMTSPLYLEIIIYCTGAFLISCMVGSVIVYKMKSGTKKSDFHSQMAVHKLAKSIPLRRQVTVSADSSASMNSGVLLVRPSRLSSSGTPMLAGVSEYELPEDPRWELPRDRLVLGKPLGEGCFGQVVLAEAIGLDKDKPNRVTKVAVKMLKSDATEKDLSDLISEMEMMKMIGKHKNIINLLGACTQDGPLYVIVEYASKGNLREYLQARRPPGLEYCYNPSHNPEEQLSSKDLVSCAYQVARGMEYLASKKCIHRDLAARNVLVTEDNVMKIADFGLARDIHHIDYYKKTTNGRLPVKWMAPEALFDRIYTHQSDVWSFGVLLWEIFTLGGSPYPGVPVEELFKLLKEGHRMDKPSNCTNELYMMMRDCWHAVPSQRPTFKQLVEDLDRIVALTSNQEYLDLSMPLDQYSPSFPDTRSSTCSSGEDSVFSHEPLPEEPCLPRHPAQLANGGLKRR
Chain of EPHB2 (P29323 whole entry, looked up): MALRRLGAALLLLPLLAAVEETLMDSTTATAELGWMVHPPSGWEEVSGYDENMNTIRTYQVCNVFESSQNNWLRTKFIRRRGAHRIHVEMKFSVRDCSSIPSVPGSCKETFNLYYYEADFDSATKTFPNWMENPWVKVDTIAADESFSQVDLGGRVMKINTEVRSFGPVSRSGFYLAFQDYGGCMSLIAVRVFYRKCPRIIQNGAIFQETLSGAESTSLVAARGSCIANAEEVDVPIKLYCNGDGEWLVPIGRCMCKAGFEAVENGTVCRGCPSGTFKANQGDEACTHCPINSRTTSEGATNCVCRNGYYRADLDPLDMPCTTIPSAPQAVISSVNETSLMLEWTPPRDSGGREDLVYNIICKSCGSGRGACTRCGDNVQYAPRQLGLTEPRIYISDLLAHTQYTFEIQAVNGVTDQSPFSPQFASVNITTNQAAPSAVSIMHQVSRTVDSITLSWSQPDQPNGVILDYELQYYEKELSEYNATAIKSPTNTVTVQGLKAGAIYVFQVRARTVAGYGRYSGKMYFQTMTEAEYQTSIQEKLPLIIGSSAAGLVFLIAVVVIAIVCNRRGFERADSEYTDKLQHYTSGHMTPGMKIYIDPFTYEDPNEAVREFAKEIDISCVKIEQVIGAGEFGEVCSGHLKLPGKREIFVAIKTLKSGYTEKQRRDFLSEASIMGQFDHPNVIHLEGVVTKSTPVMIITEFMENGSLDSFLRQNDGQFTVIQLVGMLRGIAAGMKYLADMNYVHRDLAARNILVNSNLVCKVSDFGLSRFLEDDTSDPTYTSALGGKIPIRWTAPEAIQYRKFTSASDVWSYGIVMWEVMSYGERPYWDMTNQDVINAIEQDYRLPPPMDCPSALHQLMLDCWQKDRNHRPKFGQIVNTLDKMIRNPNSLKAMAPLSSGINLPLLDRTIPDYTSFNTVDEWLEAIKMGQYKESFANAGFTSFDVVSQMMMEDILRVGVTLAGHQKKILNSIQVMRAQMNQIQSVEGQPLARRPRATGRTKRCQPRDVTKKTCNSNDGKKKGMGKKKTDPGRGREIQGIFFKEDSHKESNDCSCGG
Chain of Jak2 (O60674 whole entry, looked up): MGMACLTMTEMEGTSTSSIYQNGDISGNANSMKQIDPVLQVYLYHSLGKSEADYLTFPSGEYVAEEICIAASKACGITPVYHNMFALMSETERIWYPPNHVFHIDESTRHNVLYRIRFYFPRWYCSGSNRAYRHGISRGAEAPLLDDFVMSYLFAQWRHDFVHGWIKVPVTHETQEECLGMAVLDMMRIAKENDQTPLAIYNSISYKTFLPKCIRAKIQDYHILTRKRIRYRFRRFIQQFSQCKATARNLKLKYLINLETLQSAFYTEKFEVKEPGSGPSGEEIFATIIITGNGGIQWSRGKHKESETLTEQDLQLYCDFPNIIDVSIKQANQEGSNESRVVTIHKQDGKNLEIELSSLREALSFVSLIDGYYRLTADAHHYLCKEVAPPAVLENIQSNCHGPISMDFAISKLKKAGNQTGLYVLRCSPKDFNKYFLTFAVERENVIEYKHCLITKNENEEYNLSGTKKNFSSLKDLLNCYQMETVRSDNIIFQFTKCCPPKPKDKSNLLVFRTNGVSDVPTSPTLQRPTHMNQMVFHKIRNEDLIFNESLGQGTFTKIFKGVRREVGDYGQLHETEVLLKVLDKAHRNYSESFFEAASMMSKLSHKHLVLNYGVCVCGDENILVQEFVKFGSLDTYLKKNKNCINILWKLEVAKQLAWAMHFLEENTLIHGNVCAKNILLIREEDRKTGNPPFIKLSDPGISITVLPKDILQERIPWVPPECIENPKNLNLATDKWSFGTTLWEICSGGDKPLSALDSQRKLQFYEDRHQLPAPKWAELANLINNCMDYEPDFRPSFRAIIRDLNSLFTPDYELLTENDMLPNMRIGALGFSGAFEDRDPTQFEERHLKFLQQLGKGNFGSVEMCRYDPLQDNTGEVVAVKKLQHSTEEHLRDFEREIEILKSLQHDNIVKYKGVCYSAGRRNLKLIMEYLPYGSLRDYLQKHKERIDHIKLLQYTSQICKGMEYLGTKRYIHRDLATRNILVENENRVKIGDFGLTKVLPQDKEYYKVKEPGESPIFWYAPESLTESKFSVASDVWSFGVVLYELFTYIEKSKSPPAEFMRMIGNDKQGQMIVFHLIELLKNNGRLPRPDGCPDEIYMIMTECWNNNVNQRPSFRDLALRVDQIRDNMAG
Chain of Fyn (P06241 whole entry, looked up): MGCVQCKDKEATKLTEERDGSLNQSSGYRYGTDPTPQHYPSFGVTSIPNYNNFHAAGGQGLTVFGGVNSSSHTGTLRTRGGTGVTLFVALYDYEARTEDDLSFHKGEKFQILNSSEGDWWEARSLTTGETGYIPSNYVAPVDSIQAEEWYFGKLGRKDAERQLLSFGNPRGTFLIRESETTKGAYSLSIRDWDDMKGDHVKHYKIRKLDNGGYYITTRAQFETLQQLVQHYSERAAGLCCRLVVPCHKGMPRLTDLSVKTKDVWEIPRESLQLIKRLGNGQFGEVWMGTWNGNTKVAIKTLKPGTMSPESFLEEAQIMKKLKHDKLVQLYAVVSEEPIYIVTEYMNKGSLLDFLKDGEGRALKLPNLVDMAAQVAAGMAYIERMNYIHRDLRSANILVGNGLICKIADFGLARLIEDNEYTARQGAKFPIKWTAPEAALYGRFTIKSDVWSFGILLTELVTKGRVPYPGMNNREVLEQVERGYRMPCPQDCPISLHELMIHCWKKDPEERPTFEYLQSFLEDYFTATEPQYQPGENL

Sequence	phosphorylation enrichment (AncSZ)	phosphorylation enrichment (EPHB1)	phosphorylation enrichment (EPHB2)	phosphorylation enrichment (FGFR1)	phosphorylation enrichment (FGFR3)	phosphorylation enrichment (Fer (mouse))	phosphorylation enrichment (Fes)	phosphorylation enrichment (Fyn)	phosphorylation enrichment (Hck)	phosphorylation enrichment (Jak2)	phosphorylation enrichment (MERTK)	phosphorylation enrichment (c-Abl (mouse))	phosphorylation enrichment (c-Src)	SH2 binding enrichment (Grb2 SH2)	SH2 binding enrichment (SHP2-C SH2)	SH2 binding enrichment (c-Src SH2)
PVQAADQKVVA [HBB_Y131_Y131D]	0.918	0.508	0.718	0.654	0.816	0.482	1.18	0.62	0.576	0.893	0.593	0.781	0.605	0.731	0.733	0.388
PVQAAYQNVVA [HBB_Y131_K133N]	0.931	0.915	0.567	0.699	0.692	0.98	0.877	0.644	0.536	0.645	0.591	0.591	0.49	34.4	1.49	3.07
PVQAAYQQVVA [HBB_Y131_K133Q]	0.554	0.566	0.822	0.673	0.739	0.484	0.754	0.6	0.659	0.736	0.415	0.677	0.576	0.541	1.06	1.35
PVVKLYATEGR [RP1_Y199_D202E]	0.858	0.389	0.251	0.496	0.568	0.455	0.807	0.633	0.794	0.683	0.574	0.71	0.54	0.966	1.1	0.702
QAEEWYFGKMG [YES1_Y159]	1.28	0.498	0.48	1.17	1.07	0.603	1.13	0.773	0.847	1.44	0.439	1.05	0.787	0.942	1.09	0.359
QCTSHYPEHVC [SART3_Y541_D540H]	1.03	0.458	0.747	0.727	0.677	0.393	0.991	0.666	0.633	0.766	0.417	0.585	0.34	0.966	0.795	0.699
QDEHGYISRCF [HSPB1_Y133]	1.23	0.718	0.923	0.555	0.792	0.601	1.19	0.741	0.838	0.965	0.396	0.861	0.418	0.662	0.763	0.445
QDRDLYPCPGT [RLF_Y671]	1.05	0.71	0.693	0.484	0.878	0.687	1.37	0.936	0.429	1.1	0.751	0.863	0.613	1.11	0.717	0.644
QEIATCRRLLE [KRT14_Y415_Y415C]	0.896	0.412	0.502	0.634	0.508	0.337	0.928	0.352	0.635	0.643	0.407	0.641	0.372	0.908	0.469	0.704
QEIATYRRQLE [KRT14_Y415_L418Q]	1.11	0.75	1.27	0.65	0.808	0.601	1.01	0.83	0.559	0.976	0.445	0.773	0.583	0.768	0.332	0.593
QFFQGYFNNNF [ZNF236_Y644_S643G]	1.15	0.545	0.496	0.643	0.845	0.356	1.2	0.42	0.574	1.55	0.58	1.23	0.721	1.63	1.51	1.28
QFLMMYVWSAS [ABCD1_Y337_K336M]	1.53	0.873	0.931	0.426	1.22	0.807	1.58	0.465	0.912	1.46	0.541	1.27	0.779	0.929	1.03	0.543
QFQEKYKQMEQ [HCN4_Y531_V534M_YF]	1.24	0.608	0.576	0.654	1.05	0.502	1.87	0.93	1.53	1.36	0.554	0.976	0.366	0.844	0.956	0.472
QGFDTYFGFLL [ARSB_Y165_R160Q_YF]	3.29	4.39	7.17	6.18	5.31	8.02	2.08	11.4	8.45	4.81	6.29	1.33	7.09	0.717	0.724	0.345
QGLMPYGQPRP [SRRT_Y798]	0.853	0.568	0.513	0.696	0.527	0.424	0.863	0.488	0.563	0.601	0.596	0.725	0.883	0.955	0.653	0.357
QITQVYGFFHE [PPP2CA_Y127_D131H_YF]	1.67	0.788	1.11	0.647	1.26	0.72	1.39	17.8	14.3	0.915	5.31	1.14	9.89	1.03	0.646	0.745
QKFMAYLSQGG [HLCS_Y236]	0.839	0.731	0.803	0.466	0.64	0.487	0.745	1.2	0.738	0.945	0.517	0.446	0.542	1.23	1.17	0.877
